Reference: patent publication US20230272113A1
Residue numbers refer to the chain shown, from its start.

B1: FL-24 (scFv)
scFv: QVTLKESGPALVKPTETLTLTCTVSGFSLRNVRMGVSWIRQPPGKALEWLAHIFSNDEKSYSTSLKSRLTISKDTSKSQVVLILTNMDPVDTATYFCARMPEYSSGWSGAFDIWGQGTMVTVSSGGGGSGGGGSGGGGSDIQMTQSPSSLSASVGDRVTITCRASQDIRDDLVWYQQKPGKAPKRLIYAASTLQSGVPSRFSGSGSGTEFTLTISSLQPEDFATYYCLQHHSYPWTFGQGTKVEIK
B2: FL-25 (scFv)
scFv: B1 scFv with L29F, V32A, I83T, V173G, S202T, S204G, H231N, Y233F, W235F, Q239G
B3: FL-20 (scFv)
scFv: QVTLKESGPALVKPTETLTLTCTLSGFSLNNARMAVSWIRQPPGKTLEWLAHIFSNDEKSYSTSLKSRLTISKDTSKSQVVLTMTNMDPEDTATYYCARIVGYGTGWYGFFDYWGQGILVTVSSGGGGSGGGGSGGGGSDIQMTQSPSSLSASVGDRVTITCRASQGIRNDLAWYQQKPGKAPKRLIYAASSLQSGVPSRFSGSGSGTEFTLTISSLQPEDFATYYCLQHNSYPLTFGGGTKVEIK
B4: FL-42 (scFv)
scFv: B3 scFv with T46C, G239C
B5: FL-31 (scFv)
scFv: B3 scFv with E16Q, L24F, N30S, A35G, T46A, N86D, A164T, A173G
B6: FL-35 (scFv)
scFv: QVTLKESGPALVKPTETLTLTCTVSGFSLNNARMGVSWIRQPPGKALEWLAHIFSNDEKSYSTSLKNRLTISKDSSKTQVVLTMTNVDPVDTATYYCARIVGYGTGWYGFFDYWGQGTQVTVSSGGGGSGGGGSGGGGSDIQMTQSPSSLSASVGDRVTITCRASQDIRDDLVWYQQKPGKAPKRLIYGTSTLQSGVPSRFSGSGSGTEFTLTISSLQPEDFATYYCLQHHSYPLTFGGGTKLEIK
B7: FL-18 (scFv)
scFv: QVTLKESGPVLVKPTQTLTLTCTFSGFSLSNARMGVSWIRQPPGKALEWLAHIFSNDEKSFSTSLKNRLTISKDTSKSQVVLTMTNMDPVDTATYYCARMVGYGSGWYAYFDYWGQGTQVTVSSGGGGSGGGGSGGGGSDIQMTQSPSSLSASVGDRVTITCRASQSISSYLNWYQQKPGKAPKLLIYAASSLQSGVPSRFSGSGSGTDFTLTISSLQPEDFATYYCLQHNSYPLTFGGGTKVEIK
B8: FL-41 (scFv)
scFv: B7 scFv with A46C, G239C
B9: FL-39 (scFv)
scFv: QVTLKESGPTLVKPTETLTLTCTLSGFSLNNARMGVSWIRQPPGKCLEWLAHIFSNDEKSYSTSLKNRLTISKDSSKTQVVLTMTNVDPVDTATYYCARIVGYGSGWYGFFDYWGQGTLVTVSSGGGGSGGGGSGGGGSDIQMTQSPSSLSASVGDRVTITCRASQGIRNDLGWYQQKPGKAPKRLIYAASTLQSGVPSRFSGSGSGTEFTLTISSLQPEDFATYYCLQHNSYPLTFGCGTKVEIK
B10: FL-19 (scFv)
scFv: QVTLKESGPTLVKPTETLTLTCTVSGFSLSYARMGVSWIRQPPGKALEWLAQIFSNDEKSYSTSLKSRLTISKDTSKSQVVLTMTDMDPEDTATYYCARIVGYGTGWYGYFDYWGQGTQVTVSSGGGGSGGGGSGGGGSDIQMTQSPSSLSASVGDRVTITCRASQDIGDDLGWYQQKPGKAPKRLIYAASTLQSGVPFRFSGSGSGTDFTLTISSLQPEDFATYYCLQHNSYPLTFGGGTKVEIK
B11: FL-32 (scFv)
scFv: QVTLKESGPTLVKPTETLTLTCTVSGFSFRNARMGVSWIRQPPGKALEWLAHIFSNDEKSYSTSLKSRLTISKDTSKGQVVLTMTNMDPVDTATYYCARIVGYGSGWYGYFDYWGQGTLVTVSSGGGGSGGGGSGGGGSDIQMTQSPSSLSASVGDRVTITCRASQGIRNDLVWYQQKPGKAPKRLIYAASTLQSGVPSRFSGSGSGTEFILTISSLQPEDFATYFCLQHYSYPLTFGGGTKLEIK
B12: FL-33 (scFv)
scFv: QVTLKESGPVLVKPTETLTLTCTVSGFSLRNARMGVSWIRQPPGKTLEWLAHIFSNDEKSYSTSLKSRLTISKDTSKGQVVLTMTNMDPVDTATYYCARIVGYGSGWYGYFDYWGQGTLVTVSSGGGGSGGGGSGGGGSDIQMTQSPSSLSASVGDRVTITCRASQGIGDDLGWYQQIPGKAPKRLIYATSVLQSGVPSRFSGSGSGTEFTLTISSLQPEDFATYYCLQHNSYPLTFGGGTKLEIK
B13: FL-22 (scFv)
scFv: QVTLKESGPVLVKPTETLTLTCTVSGFSFRNARMGVSWIRQPPGKALEWLAHIFSNDEKSYSTSLKSRLTISKDTSKSQVVLTLTNMDPVDTATYFCARMPEYSSGWSGAFDIWGQGTMVTVSSGGGGSGGGGSGGGGSDIQMTQSPSSLSASVGDRVTITCRASQGISNYLAWYQQKPGKAPKRLIYAASTLQSGVPSRFSGSGSGTEFTLTISSLQPEDFATYYCLQHNTYPWTFGQGTKVEIK
B14: FL-37 (scFv)
scFv: B13 scFv with F29L, A32I, R33K, G167D, T192S, T232S, Y233F, W235L, Q239G, V243L
B15: FL-23 (scFv)
scFv: B1 scFv with L29F, V32A, I83T, R169G, D170Y, V173G, T213I, H231N, Y233F
B16: FL-26 (scFv)
scFv: B13 scFv with S169R, Y171D, A173V, A189G, A190T, T232S, W235L, Q239G
B17: FL-27 (scFv)
scFv: B13 scFv with A164T, S169R, Y171D, A173V, Y226F, N231Y, T232S, W235L, Q239G
B18: FL-38 (scFv)
scFv: B13 scFv with M119L, S169R, Y171D, A173G, T192S, T232S, W235L, Q239G, V243L
B19: FL-28 (scFv)
scFv: B13 scFv with S169G, N170D, Y171D, A173G, K178I, A190T, T192V, T232S, W235L, Q239G
B20: FL-40 (scFv)
scFv: QVTLKESGPTLVKPTETLTLTCTVSGFSLSNARMGVSWIRQPPGKCLEWLANIFSNDEKSYSTSLKSRLTISKGTSKSQVVLTMTNVNPVDTGTYYCARIVGYGSGWYGYFDYWGQGTLVTVSSGGGGSGGGGSGGGGSDIQMTQSPSSLSASVGDRVTITCRASQDIRNDLGWYQQKPGKAPKRLIYATSIRQSGVPSRFTGSGSGTEFTLTISGLQPEDFATYFCLQHNSFPLTFGCGTKVEIK
B21: FL-34 (scFv)
scFv: QVTLKESGPALVKPTETLTLTCTFSGFSLRNARMGVSWIRQPPGKALEWLAHIFWNDEKSYSTSLKSRLTISKDTSKSQVVLTMTNMDPVDTATYYCARIPYYGSGSYNYGMDVWGQGTTVTVSSGGGGSGGGGSGGGGSDIQMTQSPSSLSASVGDRVTITCRASQGIRNDLGWYQQKPGKAPKRLIYAASSLQSGVPSRFSGSGSGTEFTLTISSLQPEDFATYYCLQHNSYPLTFGGGTKLEIK
B22: FL-21 (scFv)
scFv: QVTLKESGPALVKPTETLTLTCTFSGFSLSNARMGVSWIRQPPGKALEWLAHIFSNDEKSYSTSLKSRLTISKDTSKSQVVLTMTNMDPVDTATYYCARIPGYGGNFYYHYYGMDVWGQGTTVTVSSGGGGSGGGGSGGGGSDIQMTQSPSSLSASVGDRVTITCRTSRGIRNDLGWYQQIPGRAPKRLIYAASTLQSGVPSRFSGSGSGTEFTLTISSLQPEDFATYYCLQHNNFPWTFGQGTKVEIK
B23: FL-29 (scFv)
scFv: QVTLKESGPALVKPTQTLTLTCTFSGFSLSNARMGVSWIRQPPGKALEWLAHIFSNDEKSYRTSLKSRLTISKDTSKSQVVLTMTNMDPVDTATYYCARIVGYGSGWYAYFDYWGQGTLVTVSSGGGGSGGGGSGGGGSDIQMTQSPSSLSASVGDRVTITCRASQGIRNDLGWYQQKPGKAPKRLIYAASSLQSGVPSRFSGSGSGTEFTLTISSLQPEDFATYYCLQHNSYPLTFGGGTKVEIK
B24: FL-30 (scFv)
scFv: QVTLKESGPVLVKPTQTLTLTCTFSGFSLSNARMGVSWIRQPPGKALEWLALIYWNDDKRYSPSLKSRLTITKDTSKNQVVLTMTNMDPVDTATYYCARMVGYGSGWYAYFDYWGQGTLVTVSSGGGGSGGGGSGGGGSDIQMTQSPSSLSASVGDRVTITCRASQGIRNDLGWYQQKPGKAPKRLIYAASSLQSGVPSRFSGSGSGTEFTLTISSLQPEDFATYYCLQHNSYPLTFGGGTKVEIK
B25: FL-36 (scFv)
scFv: QVTLKESGPTLVKPTETLTLTCTFSGFSLRYARMGVSWIRQPPGKALEWLAHIFSNDEKSYSTSLKSRLTISKDTSKSQVVLTLTNMDPVDTATYFCARMPEYSSGWSGAFDIWGQGTMVTVSSGGGGSGGGGSGGGGSDIQMTQSPSSLSASVGDRVTITCRASQDIRNDLAWYQQKPGKAPKRLIYAASSLQSGVPSRFSGSGSGTEFTLTISSLQPEDFATYYCLQHNSYPLTFGGGTKLEIK

Molecular target: human FLT3 on transfected CHO cells (human) (UniProt P36888)
Assay: FACS, scFv on CHO-human FLT3 cells pre-incubated with FLT3 ligand (competitor)

Binder	median [+ligand]/median [w/o ligand]*100 [%]
B1	> 75
B2	> 75
B3	> 75
B4	> 75
B5	> 75
B6	> 75
B7	> 75
B8	> 75
B9	> 75
B10	> 75
B11	> 75
B12	> 75
B13	> 75
B14	> 75
B15	> 75
B16	> 75
B17	> 75
B18	> 75
B19	> 75
B20	> 75
B21	> 75
B22	> 75
B23	> 75
B24	> 75
B25	> 75
